Legend:
[1] = target: hMPV A1 F (human metapneumovirus); assay: ELISA on coated recombinant protein, OD 405 nm
[2] = target: hMPV A1 F monomer (human metapneumovirus); assay: ELISA on coated recombinant protein, OD 405 nm
[3] = target: hMPV A1 F trimer (heated) (human metapneumovirus); assay: ELISA on coated recombinant protein, OD 405 nm
[4] = target: hMPV A2 F (human metapneumovirus); assay: ELISA on coated recombinant protein, OD 405 nm
[5] = target: hMPV B1 F (human metapneumovirus); assay: ELISA on coated recombinant protein, OD 405 nm
[6] = target: hMPV B2 F GCN4 (human metapneumovirus); assay: ELISA on coated recombinant protein, OD 405 nm
[7] = target: hMPV B2 F monomer (human metapneumovirus); assay: ELISA on coated recombinant protein, OD 405 nm
[8] = target: hMPV B2 F protein (his-tagged, not trypsin treated) (human metapneumovirus); assay: ELISA on coated recombinant protein, OD 405 nm
[9] = target: hMPV B2 F trimer (heated) (human metapneumovirus); assay: ELISA on coated recombinant protein, OD 405 nm
[10] = target: DS-CavEs2-IPDS (human metapneumovirus); assay: cryo-EM structure
[11] = target: hMPV B2 F protein (his-tagged, not trypsin treated) (human metapneumovirus); assay: BLI epitope binning on hMPV B2 F; first mAb MPV314, second mAb MPE8
[12] = target: hMPV B2 F protein (his-tagged, not trypsin treated) (human metapneumovirus); assay: BLI epitope binning on hMPV B2 F; first mAb MPV414, second mAb MPE8
[13] = target: hMPV B2 F protein (his-tagged, not trypsin treated) (human metapneumovirus); assay: BLI epitope binning on hMPV B2 F; first mAb MPV477, second mAb MPE8
[14] = target: hMPV B2 F protein (his-tagged, not trypsin treated) (human metapneumovirus); assay: BLI epitope binning on hMPV B2 F; first mAb MPV481, second mAb MPE8
[15] = target: hMPV B2 F protein (his-tagged, not trypsin treated) (human metapneumovirus); assay: BLI epitope binning on hMPV B2 F; first mAb MPV483, second mAb MPE8
[16] = target: hMPV B2 F protein (his-tagged, not trypsin treated) (human metapneumovirus); assay: BLI epitope binning on hMPV B2 F; first mAb MPV487, second mAb MPE8
[17] = target: hMPV B2 F protein (his-tagged, not trypsin treated) (human metapneumovirus); assay: BLI epitope binning on hMPV B2 F; first mAb MPV488, second mAb MPE8
[18] = target: hMPV B2 F protein (his-tagged, not trypsin treated) (human metapneumovirus); assay: BLI epitope binning on hMPV B2 F; first mAb MPV503, second mAb MPE8

B1: MPV477 (antibody, V domains shown)
VH: EVQLVQSGAEVKKPGASVEVSCKTSGYTFTDYYLHWVRQAPGQGLEWMGWINPRSGGTKYGQKFQGRVTMTRDTSISTAYMDLRGLRSDDTAVYYCARAPLLTVYAVAHRSGENRFDPWGQGTVTVSS
VL: QPPSLSGAPGQTVTISCTGSGSNIGAGYDVNWYQCLPGTAPKLLMFDNSNRPSGVPDRFSGSRSGASASLAITGLQAEDEADYYCQSYDSGLSGWVFGGGTKLTVL
EC50 [1]: 0.083 µg/mL | EC50 [2]: 0.049 µg/mL | EC50 [3]: 0.087 µg/mL | EC50 [4]: 0.023 µg/mL | EC50 [5]: 0.02 µg/mL | EC50 [6]: 0.037 µg/mL | EC50 [7]: 0.21 µg/mL | EC50 [8]: 0.063 µg/mL | EC50 [9]: 0.063 µg/mL

B2: MPV467 Fab (Fab, V domains shown)
VH: EVQLVESGGGVVRPGTSLRVSCAAFDFNFRDYGMHWVRQAPGKGLEWVAGIWYDGSNKDYADSVKGRFTISRDNSQNTLYLQMNSLRVEDTAVYYCARDPRTHREGALSHFDSWGQGTLVTVSS
VL: PNELTQDPAVSVALGQTVRITCQGDSLRNYFAGWYQQKPGQAPLLVLYGENIRPSGIPDRFSGSSSGNTVSLTITGAQAEDEADYYCNSRDNSGNHWVFGGGTRLTVL
buried surface area on hMPV F (heavy chain) [10]: 567 Å^2 | buried surface area on hMPV F (light chain) [10]: 322 Å^2

B3: MPV454 (antibody, V domains shown)
VH: EVQLVESGGGLVKPGGSLRLSCSTSGFVFSSYAMHWVRQAPGKGLEHVSAISSTGDNTHYADSVKGRFTISRDNSRGRLYLQMTSVRPEDAALYYCVKDLYSGRFYYFLDDWGQGTRIIVSS
VL: DIQVTQSPSSLSASVGDRVTISCRASQNISNYLNWFQQRPGKAPKLLIYVASTLQSGAPSRFSGSGSGTDFTLTITDLQPEDFATYYCQQSYNTPPITFGQGTRLEIK
EC50 [1]: 0.49 µg/mL | EC50 [2]: 0.052 µg/mL | EC50 [3]: 0.14 µg/mL | EC50 [4]: 0.12 µg/mL | EC50 [5]: 0.12 µg/mL | EC50 [6]: 0.068 µg/mL | EC50 [7]: 0.046 µg/mL | EC50 [8]: 5.2 µg/mL | EC50 [9]: 0.15 µg/mL

B4: MPV478 (antibody, V domains shown)
VH: EVQLVQSGAEVKKPGASVKVSCNASGYTFTGYYIHWVRQAPGQGLEWMGWINPRSGGTNYAQKFQGRVTLTRDTSITTAYMDVTRLRPDDTAVYYCATTREGIVLMPRGRGDDALDTWGQGTTVIVSS
VL: DIVMTQSPVSLTVSLGERATINCKSSQSVLSTSNNENYLAWYQQKPGQPPNLLIYWASTRESGVPDRFSGSGSGTDFTLTISSLQAEDVAVYYCQQYFATPITFGPGTKVDVK
EC50 [1]: 0.059 µg/mL | EC50 [2]: 0.012 µg/mL | EC50 [3]: 0.024 µg/mL | EC50 [4]: 0.021 µg/mL | EC50 [5]: 0.022 µg/mL | EC50 [6]: 0.02 µg/mL | EC50 [7]: 0.02 µg/mL | EC50 [8]: 0.027 µg/mL | EC50 [9]: 0.02 µg/mL

B5: MPV464 (antibody, V domains shown)
VH: QVQLQESGPGLVKPSQTLSLTCTVSGGSVRGGGDYWSWIRRPPGKGLEWIGHIYNSGTTFYNPSLKSRVTISIDTSKNQFSLKLRSVTAADTAVYYCGRVGSRATGLPDWIDPWGQGTLVTVSS
VL: SYELTQPPSVSVSPGQTATITCSGTNLGAKYSCWYQQKPGQSPVLVIFQDNKRASGIPARFSASTSGDTATLTISGTQVMDEADYFCQAWDSRTAVFGGGTTLTVL
EC50 [1]: 0.28 µg/mL | EC50 [2]: 0.067 µg/mL | EC50 [3]: 0.24 µg/mL | EC50 [4]: 0.083 µg/mL | EC50 [5]: 0.086 µg/mL | EC50 [6]: 0.12 µg/mL | EC50 [7]: 0.098 µg/mL | EC50 [8]: 0.98 µg/mL | EC50 [9]: 0.29 µg/mL

B6: MPV486 (antibody, V domains shown)
VH: EVQLVESGGHLVQSGGSLRLSCAASGFTFSNYILNWVRQAPGKGLEWISYITGGSSAIYYADSVKGRFTISRDDAKNSLYLQMNNLRAEDTAVYYCARSHGYDSSGYYYYFAMDVWGQGTTVTVSS
VL: QSVLTQPPSASGTPGQRVTISCSGSNSNIESNTVNWYQQIPGTAPKLLIYSDNRRPSGVPDRFSGSKSGTSASLAISGLQSEDEADYYCAAWDDSLIGYVFGTGTKVTV
EC50 [1]: 0.053 µg/mL | EC50 [2]: 0.088 µg/mL | EC50 [3]: 0.22 µg/mL | EC50 [4]: 0.043 µg/mL | EC50 [5]: 0.1 µg/mL | EC50 [6]: 0.1 µg/mL | EC50 [7]: 0.11 µg/mL | EC50 [8]: 0.23 µg/mL | EC50 [9]: 0.24 µg/mL

B7: MPE8 (antibody, V domains shown)
VH: EVQLVESGGGLVKPGGSLRLSCAASGFTFSSYSMNWVRQAPGKGLEWVSSISASSSYSDYADSAKGRFTISRDNAKTSLFLQMNSLRAEDTAIYFCARARATGYSSITPYFDIWGQGTLVTVSS
VL: QSVVTQPPSVSGAPGQRVTISCTGSSSNIGAGYDVHWYQQLPGTAPKLLIYDNNNRPSGVPDRFSASKSGTSASLAITGLQAEDEADYYCQSYDRSLSGVFGTGTKVTVL
% binding of the second mAb after the first mAb [11]: 4% | % binding of the second mAb after the first mAb [12]: 2% | % binding of the second mAb after the first mAb [13]: 1% | % binding of the second mAb after the first mAb [14]: 72% | % binding of the second mAb after the first mAb [15]: 71% | % binding of the second mAb after the first mAb [16]: 4% | % binding of the second mAb after the first mAb [17]: 42% | % binding of the second mAb after the first mAb [18]: -1%

B8: MPV483 (antibody, V domains shown)
VH: EVQLVQSGAELKKPGSSVKVSCKASGDTFSNYAISWVRQAPGQGLEWMGGIIPIYNTANYAQKFQGRVTLTADESTSTAYMELSSLRSEDTAVYYCARDVRNNWSVLRGARYYYYGMDVWGQGTTVTVSS
VL: DIVMTQTPFSLSASVGDRVTVTCRASQDISNSLAWFQQKPGKAPKSLIYAASSLQSGVPTRFSGGGSGTDFTLTISSLQPEDFATFYCLQYDSFPPTFGGGTKVEI
EC50 [1]: 0.12 µg/mL | EC50 [2]: 0.16 µg/mL | EC50 [3]: 0.27 µg/mL | EC50 [4]: 0.07 µg/mL | EC50 [5]: 0.12 µg/mL | EC50 [6]: 0.14 µg/mL | EC50 [7]: 0.13 µg/mL | EC50 [8]: 0.22 µg/mL | EC50 [9]: 0.33 µg/mL
